Data reported in patent publication EP2574667A1, “Enzyme variants” (Technische Universität Graz, priority 2011, dated 2013).

Legend:
[1] = molecular target: T1, 4-hydroxymandelate synthase (Hms, HMS) from Streptomyces coelicolor A3 (2), wild type, SEQ ID No. 1 (Streptomyces coelicolor, UniProt Q9Z4X7); settings: Table 2; apparent, air saturation (260 µM dioxygen), Tris buffer 20 mM pH 7.5, 25°C
T1 sequence (Q9Z4X7 1-371): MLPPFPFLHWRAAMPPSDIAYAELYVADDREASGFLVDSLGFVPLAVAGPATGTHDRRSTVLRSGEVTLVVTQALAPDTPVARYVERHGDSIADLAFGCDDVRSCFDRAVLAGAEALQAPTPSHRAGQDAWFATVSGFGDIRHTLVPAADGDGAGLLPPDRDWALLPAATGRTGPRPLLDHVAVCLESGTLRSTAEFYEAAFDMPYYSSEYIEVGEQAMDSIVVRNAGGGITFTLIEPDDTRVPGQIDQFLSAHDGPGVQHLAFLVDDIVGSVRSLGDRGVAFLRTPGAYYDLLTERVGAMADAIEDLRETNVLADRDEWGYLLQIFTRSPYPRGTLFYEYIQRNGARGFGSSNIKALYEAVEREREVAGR
Protocol: (§3) The reactivity of HMS towards a range of aromatic oxo-acids was assessed, whereby the impact of substituents in the para-position of the aromatic ring regarding electronic structure and size was probed. […] Where activities were high enough to allow a steady state kinetic analysis, specific activities (kcat) and Michaelis Menten constants (Km) were determined (the assays were performed at air saturation (=260µM dioxygen concentration, therefore all kinetic constants are apparent)). […] Reactions were performed in Tris buffer (20 mM, pH 7.5), at 25°C at air saturation.

[2] = test system: O=C(O)C(=O)Cc1ccccc1; experiment: Steady state kinetics by O2 depletion, HMS variant I236F; assay type: biochemical, Streptomyces coelicolor A3 (2); settings: other: Table 3, apparent, air saturation, pH 7.5, 25.0 °C
Protocol: (§1) Dioxygen consumption was continuously monitored using a micro-optode O2 sensor (Microtox TX3-AOT, Presens GmbH,Regensburg, Germany). Assays were generally performed at 25°C in air saturated 20 mM Tris/HCl buffer, pH 7.5 with enzyme concentrations of approx. 20 µM. To start the reaction, substrate aliquots were added from 5 mM stock solutions of the respective substrate to the desired end-concentration in a total volume of 500 µL. Initial rates were determined by linear regression analysis using the initial, linear part of the O2 depletion curve. O2 consumption rates from blanks that contained substrate in the absence of enzyme were subtracted as necessary. Specific activities were obtained by relating measured rates of O2 depletion to the protein derived Fe(II) content in the assay.
(§2) Kinetic analysis was performed via measuring O2 depletion. Kinetic parameters are apparent, as measurements were performed at air saturation. Product analysis was performed via HPLC (method is outlined in Appendix B) and confirmed via GC-MS. It could be shown that the enzyme converts phenylpyruvate analogues as a whole cell system, when a substrate analogue (e.g. p-F-phenylpyruvate) was added to cultures of E.coli BL21 cells overexpressing HMS variant S221M_V223M_Y359A. The overexpression was induced with IPTG as described in Material and Methods. […]

[3] = test system: O=C(O)C(=O)Cc1ccccc1; experiment: Steady state kinetics by O2 depletion, HMS variant S221M; assay type: biochemical, Streptomyces coelicolor A3 (2); settings: other: Table 3, apparent, air saturation, pH 7.5, 25.0 °C
Protocol: as §1, §2

[4] = test system: O=C(O)C(=O)Cc1ccccc1; experiment: Steady state kinetics by O2 depletion, HMS variant S221M_Y359A; assay type: biochemical, Streptomyces coelicolor A3 (2); settings: other: Table 3, apparent, air saturation, pH 7.5, 25.0 °C
Protocol: as §1, §2

[5] = test system: O=C(O)C(=O)Cc1ccccc1; experiment: Steady state kinetics by O2 depletion, HMS variant V223F Y359A; assay type: biochemical, Streptomyces coelicolor A3 (2); settings: other: Table 3, apparent, air saturation, pH 7.5, 25.0 °C
Protocol: as §1, §2

[6] = test system: O=C(O)C(=O)Cc1ccccc1; experiment: Steady state kinetics by O2 depletion, HMS variant V223F; assay type: biochemical, Streptomyces coelicolor A3 (2); settings: other: Table 3, apparent, air saturation, pH 7.5, 25.0 °C
Protocol: as §1, §2

[7] = test system: O=C(O)C(=O)Cc1ccccc1; experiment: Steady state kinetics by O2 depletion, HMS variant V223M; assay type: biochemical, Streptomyces coelicolor A3 (2); settings: other: Table 3, apparent, air saturation, pH 7.5, 25.0 °C
Protocol: as §1, §2

[8] = test system: O=C(O)C(=O)Cc1ccccc1; experiment: Steady state kinetics by O2 depletion, HMS variant V223W; assay type: biochemical, Streptomyces coelicolor A3 (2); settings: other: Table 3, apparent, air saturation, pH 7.5, 25.0 °C
Protocol: as §1, §2

[9] = test system: O=C(O)C(=O)Cc1ccccc1; experiment: Steady state kinetics by O2 depletion, HMS variant Y359A; assay type: biochemical, Streptomyces coelicolor A3 (2); settings: other: Table 3, apparent, air saturation, pH 7.5, 25.0 °C
Protocol: as §1, §2

[10] = substrate: O=C(O)C(=O)Cc1ccc(F)cc1; experiment: purified protein, by the assay type; settings: other: Table 2, apparent, air saturation (260 µM dioxygen), Tris buffer 20 mM pH 7.5, 25°C
Protocol: as §3

[11] = substrate: COc1ccc(CC(=O)C(=O)O)cc1; experiment: purified protein, by the assay type; settings: other: Table 2, apparent, air saturation (260 µM dioxygen), Tris buffer 20 mM pH 7.5, 25°C
Protocol: as §3

[12] = substrate: O=C(O)C(=O)Cc1ccc([N+](=O)[O-])cc1; experiment: purified protein, by the assay type; settings: other: Table 2, apparent, air saturation (260 µM dioxygen), Tris buffer 20 mM pH 7.5, 25°C
Protocol: as §3

[13] = substrate: O=C(O)C(=O)Cc1ccccc1; experiment: purified protein, by the assay type; settings: other: Table 3; apparent, air saturation, O2 depletion; pH 7.5; 25.0 °C
[14] = substrate: Cc1ccc(CC(=O)C(=O)O)cc1; experiment: purified protein, by the assay type; settings: other: Table 2, apparent, air saturation (260 µM dioxygen), Tris buffer 20 mM pH 7.5, 25°C
Protocol: as §3

## COc1ccc(CC(=O)C(=O)[O-])cc1.[Na+]
[1]
  kcat: 0.96 ± 0.12 s⁻¹

## 4-hydroxymandelate synthase (HMS) from Streptomyces coelicolor A3 (2), variant I236F (Streptomyces coelicolor A3(2); I236F)
[2]
  Km: 2000 µM
  kcat: 0.9 s⁻¹

## 4-hydroxymandelate synthase (HMS) from Streptomyces coelicolor A3 (2), variant S221M, SEQ ID No. 6 (Streptomyces coelicolor A3(2); S221M)
[3]
  Km: 330 µM
  kcat: 1.9 s⁻¹

## 4-hydroxymandelate synthase (HMS) from Streptomyces coelicolor A3 (2), variant S221M_Y359A, SEQ ID No. 8 (Streptomyces coelicolor A3(2); S221M/Y359A)
[4]
  Km: 240 µM
  kcat: 1.1 s⁻¹

## 4-hydroxymandelate synthase (HMS) from Streptomyces coelicolor A3 (2), variant V223F Y359A (V223F_Y359A), SEQ ID No. 7 (Streptomyces coelicolor A3(2); V223F/Y359A)
[5]
  Km: 1000 µM
  kcat: 2.1 s⁻¹

## 4-hydroxymandelate synthase (HMS) from Streptomyces coelicolor A3 (2), variant V223F, SEQ ID No. 2 (Streptomyces coelicolor A3(2); V223F)
[6]
  Km: 27 µM
  kcat: 1.1 s⁻¹

## 4-hydroxymandelate synthase (HMS) from Streptomyces coelicolor A3 (2), variant V223M, SEQ ID No. 4 (Streptomyces coelicolor A3(2); V223M)
[7]
  Km: 230 µM
  kcat: 1.9 s⁻¹

## 4-hydroxymandelate synthase (HMS) from Streptomyces coelicolor A3 (2), variant V223W, SEQ ID No. 3 (Streptomyces coelicolor A3(2); V223W)
[8]
  Km: 230 µM
  kcat: 0.5 s⁻¹

## 4-hydroxymandelate synthase (HMS) from Streptomyces coelicolor A3 (2), variant Y359A, SEQ ID No. 5 (Streptomyces coelicolor A3(2); Y359A)
[9]
  Km: 270 µM
  kcat: 4.8 s⁻¹

B1: 4-hydroxymandelate synthase (Hms, HMS) from Streptomyces coelicolor A3 (2), wild type, SEQ ID No. 1 (Streptomyces coelicolor A3(2)) (protein)
chain: MLPPFPFLHWRAAMPPSDIAYAELYVADDREASGFLVDSLGFVPLAVAGPATGTHDRRSTVLRSGEVTLVVTQALAPDTPVARYVERHGDSIADLAFGCDDVRSCFDRAVLAGAEALQAPTPSHRAGQDAWFATVSGFGDIRHTLVPAADGDGAGLLPPDRDWALLPAATGRTGPRPLLDHVAVCLESGTLRSTAEFYEAAFDMPYYSSEYIEVGEQAMDSIVVRNAGGGITFTLIEPDDTRVPGQIDQFLSAHDGPGVQHLAFLVDDIVGSVRSLGDRGVAFLRTPGAYYDLLTERVGAMADAIEDLRETNVLADRDEWGYLLQIFTRSPYPRGTLFYEYIQRNGARGFGSSNIKALYEAVEREREVAGR
[10]
  kcat: 0.077 ± 0.004 s⁻¹
[11]
  Km: 160 ± 70 µM
[12]
  kcat: 0.035 ± 0.007 s⁻¹
[13]
  Km: 350 µM
  kcat: 0.9 s⁻¹
[14]
  kcat: 0.13 ± 0.02 s⁻¹
